Results taken from patent US20120269834A1, “IMMUNOGLOBULIN CLEAVAGE FRAGMENT VACCINE COMPOSITIONS” (priority 2010, published 2012).

Columns and labels:
[1] = target: human IgG1 (Homo sapiens, UniProt P01857); test: action of human and bacterial proteases on human IgG1 (Table 1); format: biochemical; conditions: for Major Product: None = no detectable cleavage in 24 hours; for Cleaved Site: human IgG1 heavy chain, EU numbering
Description: Table 1 is a summary of the findings concerning the action of human proteases and two bacterial proteases on human IgG1. The term “Coagulation proteinases” refers to serum coagulation cascade proteins including; FXIIa, FIXa, FXa, thrombin and activated protein C; plasmin was plasminogen co-incubated with plasminogen activators; tPA, streptokinase and staphylokinase; “plasminogen activators alone” are without plasminogen; and the MMPs were recombinant proteinases obtained either as the active form or the pro-enzyme as detailed in the Materials; and “None” denotes no detectable cleavage in 24 hours. Except where indicated all enzymes where human. The residue designations are for the EU numbering system for the IgG1 antibody heavy chain where the 25 residues of SEQ ID NO: 1 corresponds to residues 219 through 243 of the complete mature heavy chain.

[2] = system: platelets; test: circulating platelet counts in dogs; format: in vivo, dog; conditions: for platelet clearance: dose finding
Description: First, the c7E3 antibody antigen binding and platelet depletion parameters were established in dogs.
c7E3 IgG and c7E3 IgG single-cleaved by IdeS protease were also compared in vivo. Three groups of 5 animals received either saline control, intact c7E3 IgG (0.05 mg/kg) or c7E3 single-cleaved IgG (0.05 mg/kg). Platelet counts were monitored at baseline and at 2, 24, 48, 72 and 96 hours post-administration. Limiting the study to 5 days minimized the likelihood of anti-c7E3 immune responses that might confound the interpretation of the results. The results are presented in FIG. 3 as the mean platelet count±SD for each animal group at each time point. The extent of the error bars connotes the normal variability of platelet counts in different animals (for example, the predose counts for the 5 animals in the single-cleaved IgG treatment group were 175,000, 355,000, 305,000, 276,000 and 334,000 per μL, respectively).
To be consistent with the prior experiments, the variants of c7E3 were all administered at the 0.05 mg/kg dose. The unique aspect of the experiment (groups 6 and 7) involves the infusion of the first targeting mAb followed by the cleavage site specific mAb after a 10 minute delay. The cleavage site specific IdeS cleavage site mAb, 2095-2, was administered at 0.5 mg/kg; 10-fold higher than the dose used for all of the c7E3 variants. The higher dose was chosen in order to maximize the complexation of cleavage site specific mAb with platelet-bound c7E3 variants. All mAbs were delivered by slow infusion over a 20 minute period. Platelet counts were monitored over a 96-hour period. The platelet counts were normalized to the pre-dose count within each animal for clarity of presentation and to minimize the normal variability in numerical platelet counts in these small 3-animal groups.

[3] = system: platelets; test: circulating platelet counts in dogs; format: in vivo, dog; conditions: dose finding
[4] = FIG. 12 study, groups of 3 animals, c7E3 variants 0.05 mg/kg, 2095-2 0.5 mg/kg

Chain of human IgG1 (P01857 1-330 isoform P01857-1, other chains not shown): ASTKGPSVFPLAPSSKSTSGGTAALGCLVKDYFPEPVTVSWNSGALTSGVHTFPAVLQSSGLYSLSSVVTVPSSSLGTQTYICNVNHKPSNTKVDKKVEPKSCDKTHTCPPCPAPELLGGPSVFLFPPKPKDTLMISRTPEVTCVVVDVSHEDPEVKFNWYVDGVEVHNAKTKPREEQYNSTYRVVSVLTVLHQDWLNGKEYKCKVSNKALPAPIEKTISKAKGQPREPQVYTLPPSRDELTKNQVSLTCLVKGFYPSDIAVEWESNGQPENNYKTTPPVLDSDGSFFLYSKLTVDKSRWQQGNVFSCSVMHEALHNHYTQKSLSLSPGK

B1: Chymase: human protease (protein, UniProt P23946 22-247, looked up)
Chymase: IIGGTECKPHSRPYMAYLEIVTSNGPSKFCGGFLIRRNFVLTAAHCAGRSITVTLGAHNITEEEDTWQKLEVIKQFRHPKYNTSTLHHDIMLLKLKEKASLTLAVGTLPFPSQFNFVPPGRMCRVAGWGRTGVLKPGSDTLQEVKLRLMDPQACSHFRDFDHNLQLCVGNPRKTKSAFKGDSGGPLLCAGVAQGIVSYGRSDAKPPAVFTRISHYRPWINQILQAN
[1]
  Major Product: None

B2: c7E3 IgG: anti-platelet integrin (αIIbβIIIa) murine-human IgG1 chimeric antibody (antibody, chains of the INN, looked up, V domains shown)
VH: EVQLQQSGTVLARPGASVKMSCEASGYTFTNYWMHWVKQRPGQGLEWIGAIYPGNSDTSYIQKFKGKAKLTAVTSTTSVYMELSSLTNEDSAVYYCTLYDGYYVFAYWGQGTLVTVSA
VL: EIVLTQSPVTLSVTPGDSVSLSCRASRDISNNLHWFQQTSHESPRLLIKYASQSMSGIPSRFSGSGSGTDFTLSINSVETEDFGMYFCQQTNSWPYTFGGGTKLEIK
modifications: IgG1
notes: anti-platelet integrin (αIIbβIIIa) murine-human IgG1 chimeric antibody
[2]; 0.05 mg/kg, by 96 hours
  platelet count recovery: approximately 50 % of the pre-dose level
[2]; 0.05 mg/kg, groups of 5 animals
  time of platelet nadir: 24 h
[2]; 0.05 mg/kg, groups of 5 animals, monitored to 96 hours
  effect on platelet numbers: substantial decrease
[2]; FIG. 12 study, 0.05 mg/kg
  start of recovery of platelet numbers: approximately 72 hours
  time of platelet nadir: 24 to 48 h
[2]; [4]
  effect on platelet numbers: substantial platelet clearance
[2]; after 24 hours, recovery over 5 days
  platelet clearance in pilot study: profound platelet clearance
[2]; calculated for the 0.05 mg/kg dose
  αIIβ3 receptor blockade: about 5%
[2]; 0.05 mg/kg, 2 hours
  platelet clearance: little effect
[2]; 0.05 mg/kg, 24 hours
  platelet clearance: > 90%
[2]; doses >0.05 mg/kg
  time to platelet clearance: ≤ 24 h
[3]; 0.01 mg/kg, 2 and 24 hours
  platelet clearance: ineffective
[3]; 0.2 mg/kg, at 2 hours, maintained at 24 hours
  platelet clearance: profound platelet clearance

B3: c7E3 F(ab′)2: F(ab′)2 of c7E3 prepared using the bacterial enzyme IdeS (antibody, chains of the INN, looked up, V domains shown)
VH: B2 VH
VL: B2 VL
modifications: F(ab')2 IdeS-generated
notes: F(ab′)2 of c7E3 prepared using the bacterial enzyme IdeS
[2]; [4]
  effect on platelet numbers: without effect

B4: Proteinase 3: human protease (protein, UniProt P24158 28-248, looked up)
Myeloblastin: IVGGHEAQPHSRPYMASLQMRGNPGSHFCGGTLIHPSFVLTAAHCLRDIPQRLVNVVLGAHNVRTQEPTQQHFSVAQVFLNNYDAENKLNDVLLIQLSSPANLSASVATVQLPQQDQPVPHGTQCLAMGWGRVGAHDPPAQVLQELNVTVVTFFCRPHNICTFVPRRKAGICFGDSGGPLICDGIIQGIDSFVIWGCATRLFPDFFTRVALYVDWIRSTLR
[1]
  Major Product: None

B5: Plasmin: plasminogen co-incubated with plasminogen activators (protein, UniProt P00747 20-580; P00747 581-810, looked up)
Plasmin heavy chain A: EPLDDYVNTQGASLFSVTKKQLGAGSIEECAAKCEEDEEFTCRAFQYHSKEQQCVIMAENRKSSIIIRMRDVVLFEKKVYLSECKTGNGKNYRGTMSKTKNGITCQKWSSTSPHRPRFSPATHPSEGLEENYCRNPDNDPQGPWCYTTDPEKRYDYCDILECEEECMHCSGENYDGKISKTMSGLECQAWDSQSPHAHGYIPSKFPNKNLKKNYCRNPDRELRPWCFTTDPNKRWELCDIPRCTTPPPSSGPTYQCLKGTGENYRGNVAVTVSGHTCQHWSAQTPHTHNRTPENFPCKNLDENYCRNPDGKRAPWCHTTNSQVRWEYCKIPSCDSSPVSTEQLAPTAPPELTPVVQDCYHGDGQSYRGTSSTTTTGKKCQSWSSMTPHRHQKTPENYPNAGLTMNYCRNPDADKGPWCFTTDPSVRWEYCNLKKCSGTEASVVAPPPVVLLPDVETPSEEDCMFGNGKGYRGKRATTVTGTPCQDWAAQEPHRHSIFTPETNPRAGLEKNYCRNPDGDVGGPWCYTTNPRKLYDYCDVPQCAAPSFDCGKPQVEPKKCPGR
Plasmin light chain B: VVGGCVAHPHSWPWQVSLRTRFGMHFCGGTLISPEWVLTAAHCLEKSPRPSSYKVILGAHQEVNLEPHVQEIEVSRLFLEPTRKDIALLKLSSPAVITDKVIPACLPSPNYVVADRTECFITGWGETQGTFGAGLLKEAQLPVIENKVCNRYEFLNGRVQSTELCAGHLAGGTDSCQGDSGGPLVCFEKDKYILQGVTSWGLGCARPNKPGVYVRVSRFVTWIEGVMRNN
modifications: plasmin
[1]
  Major Product: Fab + Fc
  Cleaved Site: Lys^223-

B6: Cathepsin S: human cysteine endopeptidase (protein, UniProt P25774 115-331, looked up)
Cathepsin S: LPDSVDWREKGCVTEVKYQGSCGACWAFSAVGALEAQLKLKTGKLVSLSAQNLVDCSTEKYGNKGCNGGFMTTAFQYIIDNKGIDSDASYPYKAMDQKCQYDSKYRAATCSKYTELPYGREDVLKEAVANKGPVSVGVDARHPSFFLYRSGVYYEPSCTQNVNHGVLVVGYGDLNGKEYWLVKNSWGHNFGEEGYIRMARNKGNHCGIASFPSYPEI
[1]
  Major Product: None

B7: Macrophage metalloelastase (MMP-12): recombinant human MMP (protein, UniProt P39900 106-470, looked up)
Macrophage metalloelastase: GPVWRKHYITYRINNYTPDMNREDVDYAIRKAFQVWSNVTPLKFSKINTGMADILVVFARGAHGDFHAFDGKGGILAHAFGPGSGIGGDAHFDEDEFWTTHSGGTNLFLTAVHEIGHSLGLGHSSDPKAVMFPTYKYVDINTFRLSADDIRGIQSLYGDPKENQRLPNPDNSEPALCDPNLSFDAVTTVGNKIFFFKDRFFWLKVSERPKTSVNLISSLWPTLPSGIEAAYEIEARNQVFLFKDDKYWLISNLRPEPNYPKSIHSFGFPNFVKKIDAAVFNPRFYRTYFFVDNQYWRYDERRQMMDPGYPKLITKNFQGIGPKIDAVFYSKNKYYYFFQGSNQFEYDFLLQRITKTLKSNSWFGC
[1]
  Major Product: F(ab′)2 +
  Cleaved Site: Pro^232-
